In publication PMC9402439, “Reconstitution of a telomeric replicon organized by CST”:

B1: 9xTEL (ssDNA)
DNA: TTAGGGTTAGGGTTAGGGTTAGGGTTAGGGTTAGGGTTAGGGTTAGGGTTAGGG
B2: 15xTEL (ssDNA)
DNA: TTAGGGTTAGGGTTAGGGTTAGGGTTAGGGTTAGGGTTAGGGTTAGGGTTAGGGTTAGGGTTAGGGTTAGGGTTAGGGTTAGGGTTAGGG

Molecular target: CTC1 (CST subunit);STN1 (CST subunit);TEN1 (CST subunit);Polα-primase, endogenous, co-purified with CST (Homo sapiens;Homo sapiens;Homo …, UniProt Q2NKJ3;Q9H668;Q86WV5;P09884;Q14181;P49642;P49643 …, |||)
Test: EMSA; Kd,app shown only in figure; CST EMSA: 20 mM HEPES-NaOH pH 8.0, 150 mM NaCl, 2 mM MgCl2, 0.2 mM EGTA, 0.1% NP-40, 10% glycerol, 1 mM DTT, 2 h on ice, 0.7% agarose 1x TBE gel at 4 °C; POT1-TPP1N EMSA: C-strand synthesis buffer, 30 min at 30 °C
Settings: protein: recombinant;recombinant;recombinant;native; tags: N-terminal 3xFLAG;N-terminal Myc;N-terminal HA;; copies: 1;1;1;1;1;1;1; label: 5'-32P; folds into G-quadruplex in KCl and NaCl, not LiCl

Binder	binding result
B1	binds
B2	binds
